Changes are numbered by the printed parent chain. Values belong to the binder of their own block, whether it stands above or below them.
Target: biotinylated DAE10 peptide (Aβ1-10 conjugated to biotin at the carboxy-terminus)
Assay: SPR; BIAcore; biotinylated DAE10 peptide (Aβ1-10) immobilised on streptavidin coated chips at low density (4 to 7 RU); whole antibodies injected in triplicate at 100 nM, 30 μl/minute; apparent rate constants, bivalent model, KD corrected for active concentration of antibody

Kd: 2.1 nM | koff: 0.000399 s⁻¹ | kon: 189000 M⁻¹ s⁻¹
B1: Humanized 3D6 version 1 (antibody, V domains shown)
VH: EVQLLESGGGLVQPGGSLRLSCAASGFTFSNYGMSWVRQAPGKGLEWVASIRSGGGRTYYSDNVKGRFTISRDNAKNSLYLQMNSLRAEDTALYYCVRYDHYSGSSDYWGQGTLVTVSS
VL: YVVMTQSPLSLPVTPGEPASISCKSSQSLLDSDGKTYLNWLLQKPGQSPQRLIYLVSKLDSGVPDRFSGSGSGTDFTLKISRVEAEDVGVYYCWQGTHFPRTFGQGTKVEIK

Kd: 2.8 nM | koff: 0.000423 s⁻¹ | kon: 150000 M⁻¹ s⁻¹
B2: Bapineuzumab (humanized 3D6, version 2) (antibody, V domains shown)
VH: B1 VH with A75S, S78T, L93V
VL: B1 VL with Y1D
